Measured values: US20200248174

Columns and labels:
[1] = molecular target: dCas9 (SpCas9 D10A, H840A) ligated to SH3 domain via 2xGS linker
[2] = molecular target: dCas9 (SpCas9 D10A, H840A) with a plurality of binding domains (SH3 domains)

B1: human AID deaminase added with SH3 ligand sequence (protein)
chain: MDSLLMNRRKFLYQFKNVRWAKGRRETYLCYVVKRRDSATSFSLDFGYLRNKNGCHVELLFLRYISDWDLDPGRCYRVTWFTSWSPCYDCARHVADFLRGNPYLSLRIFTARLYFCEDRKAEPEGLRRLHRAGVQIAIMTFKDYFYCWNTFVENHERTFKAWEGLHENSVRLSRQLRRILLPLYEVDDLRDAFRTLGLLDPPPALPPKRRR
- introduction of mutation into the targeted site of the CAN1 gene in budding yeast [1]: even when dCas9 and deaminase were linked via the binding domain, mutation was efficiently introduced into the targeted site of the CAN1 gene
- mutation introduction efficiency at the CAN1 gene in budding yeast [2]: The mutation introduction efficiency was remarkably improved by introducing a plurality of binding domains into dCas9
